Patent US6524826B1, “Polynucleotides encoding cortistatin polypeptides” (Human Genome Sciences, Inc., priority 1996, dated 2003)

Tests used:
[1] = test system: CA1 neuron; test: action potential firing of a manually depolarized CA1 neuron; type: cell-based; settings: superfusion by 1 μM; CA1 neuron depolarized to about −65 mV
Description: (§1) For example, one can measure Cortistatin activity by manually depolarizing a CA1 neuron to about −65 mV (resting potential at about −70 mV) to elicit action potential firing. […] One can measure Population Spike (PS) amplitudes in CA1 neurons in vivo, by generating stimulus response curves and relating the PS amplitude monotonically to stimulus intensity tested at three response levels: threshold, half-maximal, and maximal. […] Another assay for polypeptides having Cortistatin activity is the effect of intracerebroventricular administration to male Sprague—Dawley rats, anesthetized with halothane, of the polypeptide in question on the sleep—wake cycle of the rat. An active polypeptide would increase the period of slow wave sleep and decrease REM sleep.

[2] = test system: CA1 neurons; test: Population Spike (PS) amplitudes in CA1 neurons in vivo; settings: microiontophoretic application of 1 mg ml^−1
Description: as §1

B1: Human Cortistatin: Human Cortistatin polypeptide, brain neuropeptide; mature protein amino acid residues about 1 to about 86 in SEQ ID NO:2 (protein)
chain: MPLSPGLLLLLLSGATATAALPLEGGPTGRDSEHMQEAAGIRKSSLLTFLAWWFEWTSQASAGPLIGEEAREVARRQEGAPPQQSA
modifications: Human Cortistatin
Q: Which results are given for B1?
A: action potential discharge [1]: abolish the action potential discharge; PS amplitudes in CA1 [2]: significantly decrease PS amplitudes
